Laboratory results published in patent US20210299283A1 (SANFORD BURNHAM PREBYS MEDICAL DISCOVERY INSTITUTE, published 2021).
Primed or numbered codes have the meaning given here. Where no end group is shown, it is not given here. [ ]: non-standard residue; d: D form. Ahx = NCCCCCC(=O)O; FAM″ = fluorescein

What was measured:
[1] = target: T1, CTGF, endogenous human (U251 astrocytoma cell lysate; human AD brain sections) (human, UniProt P29279 27-349, limits assumed); assay: affinity chromatography of U251 cell lysate on biotin-DAG magnetic particles, control peptide wash, elution with 1 mM free DAG, LC-MS/MS
T1 construct: Native protein in a cell lysate, on cells or in tissue sections; Identified by LC-MS/MS against the Uniprot database; also called CCN2; connective tissue growth factor
T1 sequence (looked up): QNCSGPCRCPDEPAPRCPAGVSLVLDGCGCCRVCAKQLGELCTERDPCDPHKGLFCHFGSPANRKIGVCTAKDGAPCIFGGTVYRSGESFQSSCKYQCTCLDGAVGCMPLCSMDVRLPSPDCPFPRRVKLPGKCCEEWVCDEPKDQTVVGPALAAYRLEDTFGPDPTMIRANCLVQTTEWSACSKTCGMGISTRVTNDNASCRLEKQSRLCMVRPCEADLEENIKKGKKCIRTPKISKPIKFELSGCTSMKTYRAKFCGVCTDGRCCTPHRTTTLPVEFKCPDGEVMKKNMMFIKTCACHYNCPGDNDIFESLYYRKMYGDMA
Procedure: For identifying DAG binding proteins, the human glioblastoma astrocytoma cell line U251 was lysed in PBS containing 200 mM n-octyl-beta-D-glucopyranoside and protease inhibitor cocktail (Roche) as described previously with slight modifications. The clarified lysates were loaded on to Sera-Mag magnetic particles (GE Healthcare Lifesciences, USA) coated with biotin-DAG, and incubated overnight with rotation at 4° C. The magnetic beads were washed with wash buffer followed by additional washing with 0.5 mM control peptide ([…]; SEQ ID NO: 103) to remove non-specifically bound proteins. The bound proteins were eluted with 1 mM free DAG peptide. The eluted factions were pooled, their protein concentration determined by using bicinchoninic acid (BCA) protein assay (Pierce) and the samples were digested using the Filter-aided Sample Preparation (FASP) method. Finally, the digested samples were dried, desalted and subjected to LC-MS/MS analysis at the Sanford Burnham Prebys Medical Discovery Institute's Proteomics Core facility. All mass spectra were analyzed with MaxQuant™ software version 1.5.0.25. The MS/MS spectra were searched against the Uniprot™ protein sequence database (version July 2014).

[2] = target: T1, CTGF, endogenous human (U251 …); assay: DAG-AgNP binding to cultured U251 cells, fluorescence microscopy
Procedure: FIG. 7 is a graphical representation showing quantity of DAG-coated silver nanoparticles (DAG-AgNPs) binding to human astrocytoma U251 cells. Cultured U251 cells were incubated with DAG-AgNPs alone, in the presence of free non-labeled control peptide, or an excess of free, non-labeled DAG (both at 200 μM), for 1 hour at 37° C. Nanoparticle binding was quantified from fluorescence micrographs using ImageJ™ software. Scale bar, 20 μm.
Cell binding experiments on U251 cells and hiPSCs were with done using peptide conjugated AgNP. U251 cells were cultured in a 96-well plate. The cells were blocked with 200 μl of 10% FCS in HBSS (Hanks' Balanced Salt Solution from Gibco) for 30 min at 37° C. Following that, DAG-AgNPs (0.5 nM concentration diluted in HBSS) alone or in the presence of free non-labeled peptide (200 μM) were incubated on the cells for 1 hour at 37° C. After washing the unbound AgNP with HBSS three times, the plates were imaged with fluorescent microscopy by looking at intrinsic emission from the FAM tag on the peptide. hiPSCs were cultured in 48 well plate and similar protocol as described above was followed, with the exception that AgNP concentration for incubation was kept at 0.15 nM. Nanoparticle binding was quantified from fluorescence micrographs using ImageJ™ software.

Binder	binding result [1]	binding result [2]
CDAGRKQKC-NH2 (not fully specified (bridges); also: fluorescein (FAM) or biotin tag at the N-terminus, described as a cyclic peptide, ring not given here, also called FAM-DAG; FAM-labeled DAG) [DAG peptide (CDAGRKQKC), labelled synthetic cyclic peptide]	binds	
{FAM″}-C[Ahx]CDAGRKQKC-NH2 (also: conjugated via the added Cys thiol to maleimide-PEG on silver nanoparticles, Many copies of the peptide on silver nanoparticles of about 35 nm; also called DAG-AgNP; DAG-AgNPs) [DAG-conjugated silver nanoparticles (FAM-cys-x-DAG-NH2 on AgNPs)]		binds
